Assay results reported in patent US20230212549A1 (3B PHARMACEUTICALS, published 2023).
Where “and” joins values, the source holds several entries; their conditions need not be identical. Identical values can stand only once. Numbered stars: 1 amine (or outer) side, 2 acyl side, 3 side chain; on linkers, the order of the positions; unused ones are H or OH. Bridge positions count the residues as written; N and C are the ends. Square brackets hold non-standard residues; d marks the D form. * marks the point of attachment. DOTA = O=C(O)CN1CCN(CC(=O)O)CCN(CC(=O)*)CCN(CC(=O)O)CC1; Pro(trans-4-F) = O=C(O)[C@@H]1C[C@@H](F)CN1; Phe(4-Cl) = N[C@@H](Cc1ccc(Cl)cc1)C(=O)O; Phe(2-Cl) = N[C@@H](Cc1ccccc1Cl)C(=O)O; 2Nal = N[C@@H](Cc1ccc2ccccc2c1)C(=O)O; mXylylene = c1cc(C[*:1])cc(C[*:2])c1; 4Amb = NCc1ccc(C(=O)O)cc1; Nle = CCCC[C@H](N)C(=O)O; Hexanoyl = CCCCCC(=O)*; Phb = not defined here; Mpa = O=C(O)CCS; Sar = CNCC(=O)O

Tests used:
[1] = target: T1, fibroblast activation protein (FAP) on FAP-expressing human WI-38 fibroblasts (human, UniProt Q12884 1-760); test: competitive FACS, WI-38 cells, vs Cy5 tracer m3; C = pIC50 6.1-7.0
T1 construct: also called human FAP

[2] = target: Recombinant human FAP (R&D systems, #3715-SE) (human, UniProt Q12884 26-760); test: cell-based or functional assay
[3] = target: T1, fibroblast activation protein (FAP) on …; test: competitive FACS, WI-38 cells, vs Cy5 tracer m3; B = pIC50 7.1-8.0

| pIC50 Category (FACS) [1] | pIC50 Category (Activity) [2] | pIC50 Category (FACS) [3] | Binder |
| --- | --- | --- | --- |
| 6.1 pIC50 and 7 pIC50 | 7.1 pIC50 and 8 pIC50 | – | Hexanoyl-C[Sar]PTEFC-NH2 (linker 1-7 via mXylylene; SMILES CCCCCC(=O)N[C@H]1CSCc2cccc(c2)CSC[C@@H](C(N)=O)NC(=O)[C@H](Cc2ccccc2)NC(=O)[C@H](CCC(=O)O)NC(=O)[C@H]([C@@H](C)O)NC(=O)[C@@H]2CCCN2C(=O)CN(C)C1=O, also called 3BP-3347) [Hex-[Cys(3MeBn)-Nmg-Pro-Thr-Glu-Phe-Cys]-NH2] |
| 6.1 pIC50 and 7 pIC50 | 6.1 pIC50 and 7 pIC50 | – | Hexanoyl-CPPTE[2Nal]C-NH2 (linker 1-7 via mXylylene; SMILES CCCCCC(=O)N[C@H]1CSCc2cccc(c2)CSC[C@@H](C(N)=O)NC(=O)[C@H](Cc2ccc3ccccc3c2)NC(=O)[C@H](CCC(=O)O)NC(=O)[C@H]([C@@H](C)O)NC(=O)[C@@H]2CCCN2C(=O)[C@@H]2CCCN2C1=O, also called 3BP-3362) [Hex-[Cys(3MeBn)-Pro-Pro-Thr-Glu-2Ni-Cys]-NH2] |
| 6.1 pIC50 and 7 pIC50 | 6.1 pIC50 and 7 pIC50 | – | Ac-MC[dP]PTEFCDHFRD-NH2 (linker 2-8 via mXylylene; SMILES CSCC[C@H](NC(C)=O)C(=O)N[C@H]1CSCc2cccc(c2)CSC[C@@H](C(=O)N[C@@H](CC(=O)O)C(=O)N[C@@H](Cc2c[nH]cn2)C(=O)N[C@@H](Cc2ccccc2)C(=O)N[C@@H](CCCNC(=N)N)C(=O)N[C@@H](CC(=O)O)C(N)=O)NC(=O)[C@H](Cc2ccccc2)NC(=O)[C@H](CCC(=O)O)NC(=O)[C@H]([C@@H](C)O)NC(=O)[C@@H]2CCCN2C(=O)[C@H]2CCCN2C1=O, also called 3BP-3176) [Ac-Met-[Cys(3MeBn)-pro-Pro-Thr-Glu-Phe-Cys]-Asp-His-Phe-Arg-Asp-NH2] |
| – | > 8 pIC50 | 7.1 pIC50 and 8 pIC50 | Hexanoyl-CPPTEFC[4Amb]R-NH2 (linker 1-7 via mXylylene; SMILES CCCCCC(=O)N[C@H]1CSCc2cccc(c2)CSC[C@@H](C(=O)NCc2ccc(C(=O)N[C@@H](CCCNC(=N)N)C(N)=O)cc2)NC(=O)[C@H](Cc2ccccc2)NC(=O)[C@H](CCC(=O)O)NC(=O)[C@H]([C@@H](C)O)NC(=O)[C@@H]2CCCN2C(=O)[C@@H]2CCCN2C1=O, also called 3BP-3303) [Hex-[Cys(3MeBn)-Pro-Pro-Thr-Glu-Phe-Cys]-Pamb-Arg-NH2] |
| 6.1 pIC50 and 7 pIC50 | 6.1 pIC50 and 7 pIC50 | – | Ac-MCPPTE[dF]CDHFRD-NH2 (linker 2-8 via mXylylene; SMILES CSCC[C@H](NC(C)=O)C(=O)N[C@H]1CSCc2cccc(c2)CSC[C@@H](C(=O)N[C@@H](CC(=O)O)C(=O)N[C@@H](Cc2c[nH]cn2)C(=O)N[C@@H](Cc2ccccc2)C(=O)N[C@@H](CCCNC(=N)N)C(=O)N[C@@H](CC(=O)O)C(N)=O)NC(=O)[C@@H](Cc2ccccc2)NC(=O)[C@H](CCC(=O)O)NC(=O)[C@H]([C@@H](C)O)NC(=O)[C@@H]2CCCN2C(=O)[C@@H]2CCCN2C1=O, also called 3BP-3180) [Ac-Met-[Cys(3MeBn)-Pro-Pro-Thr-Glu-phe-Cys]-Asp-His-Phe-Arg-Asp-NH2] |
| 6.1 pIC50 and 7 pIC50 | 6.1 pIC50 and 7 pIC50 | – | Phb-CPPTQFCD-NH2 (linker 1-7 via mXylylene; reading uncertain; also: printed as Phb-[Cys(3MeBn)-Pro-Pro-Thr-Gln-Phe-Cys]-Asp-NH2, also called 3BP-3418) [Phb-[Cys(3MeBn)-Pro-Pro-Thr-Gln-Phe-Cys]-Asp-NH2] |
| 6.1 pIC50 and 7 pIC50 | 6.1 pIC50 and 7 pIC50 | – | Ac-MCPPTEFCDHFAD-NH2 (linker 2-8 via mXylylene; SMILES CSCC[C@H](NC(C)=O)C(=O)N[C@H]1CSCc2cccc(c2)CSC[C@@H](C(=O)N[C@@H](CC(=O)O)C(=O)N[C@@H](Cc2c[nH]cn2)C(=O)N[C@@H](Cc2ccccc2)C(=O)N[C@@H](C)C(=O)N[C@@H](CC(=O)O)C(N)=O)NC(=O)[C@H](Cc2ccccc2)NC(=O)[C@H](CCC(=O)O)NC(=O)[C@H]([C@@H](C)O)NC(=O)[C@@H]2CCCN2C(=O)[C@@H]2CCCN2C1=O, also called 3BP-3197) [Ac-Met-[Cys(3MeBn)-Pro-Pro-Thr-Glu-Phe-Cys]-Asp-His-Phe-Ala-Asp-NH2] |
| 6.1 pIC50 and 7 pIC50 | 6.1 pIC50 and 7 pIC50 | – | Ac-MC[dA]PTEFCDHFRD-NH2 (linker 2-8 via mXylylene; SMILES CSCC[C@H](NC(C)=O)C(=O)N[C@H]1CSCc2cccc(c2)CSC[C@@H](C(=O)N[C@@H](CC(=O)O)C(=O)N[C@@H](Cc2c[nH]cn2)C(=O)N[C@@H](Cc2ccccc2)C(=O)N[C@@H](CCCNC(=N)N)C(=O)N[C@@H](CC(=O)O)C(N)=O)NC(=O)[C@H](Cc2ccccc2)NC(=O)[C@H](CCC(=O)O)NC(=O)[C@H]([C@@H](C)O)NC(=O)[C@@H]2CCCN2C(=O)[C@@H](C)NC1=O, also called 3BP-3215) [Ac-Met-[Cys(3MeBn)-ala-Pro-Thr-Glu-Phe-Cys]-Asp-His-Phe-Arg-Asp-NH2] |
| 6.1 pIC50 and 7 pIC50 | 7.1 pIC50 and 8 pIC50 | – | Hexanoyl-CPPTE[Phe(2-Cl)]C-NH2 (linker 1-7 via mXylylene; SMILES CCCCCC(=O)N[C@H]1CSCc2cccc(c2)CSC[C@@H](C(N)=O)NC(=O)[C@H](Cc2ccccc2Cl)NC(=O)[C@H](CCC(=O)O)NC(=O)[C@H]([C@@H](C)O)NC(=O)[C@@H]2CCCN2C(=O)[C@@H]2CCCN2C1=O, also called 3BP-3368) [Hex-[Cys(3MeBn)-Pro-Pro-Thr-Glu-Ocf-Cys]-NH2] |
| 6.1 pIC50 and 7 pIC50 | 6.1 pIC50 and 7 pIC50 | – | {DOTA}-CPPTEFCDHFRD-NH2 (linker 1-7 via mXylylene; SMILES C[C@@H](O)[C@@H]1NC(=O)[C@@H]2CCCN2C(=O)[C@@H]2CCCN2C(=O)[C@@H](NC(=O)CN2CCN(CC(=O)O)CCN(CC(=O)O)CCN(CC(=O)O)CC2)CSCc2cccc(c2)CSC[C@@H](C(=O)N[C@@H](CC(=O)O)C(=O)N[C@@H](Cc2c[nH]cn2)C(=O)N[C@@H](Cc2ccccc2)C(=O)N[C@@H](CCCNC(=N)N)C(=O)N[C@@H](CC(=O)O)C(N)=O)NC(=O)[C@H](Cc2ccccc2)NC(=O)[C@H](CCC(=O)O)NC1=O, also called 3BP-3174) [DOTA-[Cys(3MeBn)-Pro-Pro-Thr-Glu-Phe-Cys]-Asp-His-Phe-Arg-Asp-NH2] |
| 6.1 pIC50 and 7 pIC50 | 6.1 pIC50 and 7 pIC50 | – | [Mpa]PPTQFCD-NH2 (linker 1-7 via mXylylene; SMILES C[C@@H](O)[C@@H]1NC(=O)[C@@H]2CCCN2C(=O)[C@@H]2CCCN2C(=O)CCSCc2cccc(c2)CSC[C@@H](C(=O)N[C@@H](CC(=O)O)C(N)=O)NC(=O)[C@H](Cc2ccccc2)NC(=O)[C@H](CCC(N)=O)NC1=O, also called 3BP-3419) [[3MeBn-Spa-Pro-Pro-Thr-Gln-Phe-Cys]-Asp-NH2] |
| 6.1 pIC50 and 7 pIC50 | 7.1 pIC50 and 8 pIC50 | – | Hexanoyl-CGPTEFC-NH2 (linker 1-7 via mXylylene; SMILES CCCCCC(=O)N[C@H]1CSCc2cccc(c2)CSC[C@@H](C(N)=O)NC(=O)[C@H](Cc2ccccc2)NC(=O)[C@H](CCC(=O)O)NC(=O)[C@H]([C@@H](C)O)NC(=O)[C@@H]2CCCN2C(=O)CNC1=O, also called 3BP-3345) [Hex-[Cys(3MeBn)-Gly-Pro-Thr-Glu-Phe-Cys]-NH2] |
| 6.1 pIC50 and 7 pIC50 | 7.1 pIC50 and 8 pIC50 | – | Hexanoyl-CPPTEFC-NH2 (linker 1-7 via mXylylene; SMILES CCCCCC(=O)N[C@H]1CSCc2cccc(c2)CSC[C@@H](C(N)=O)NC(=O)[C@H](Cc2ccccc2)NC(=O)[C@H](CCC(=O)O)NC(=O)[C@H]([C@@H](C)O)NC(=O)[C@@H]2CCCN2C(=O)[C@@H]2CCCN2C1=O, also called 3BP-3287) [Hex-[Cys(3MeBn)-Pro-Pro-Thr-Glu-Phe-Cys]-NH2] |
| 6.1 pIC50 and 7 pIC50 | 6.1 pIC50 and 7 pIC50 | – | {DOTA}-MCPPTEFCDHFRD-NH2 (linker 2-8 via mXylylene; SMILES CSCC[C@H](NC(=O)CN1CCN(CC(=O)O)CCN(CC(=O)O)CCN(CC(=O)O)CC1)C(=O)N[C@H]1CSCc2cccc(c2)CSC[C@@H](C(=O)N[C@@H](CC(=O)O)C(=O)N[C@@H](Cc2c[nH]cn2)C(=O)N[C@@H](Cc2ccccc2)C(=O)N[C@@H](CCCNC(=N)N)C(=O)N[C@@H](CC(=O)O)C(N)=O)NC(=O)[C@H](Cc2ccccc2)NC(=O)[C@H](CCC(=O)O)NC(=O)[C@H]([C@@H](C)O)NC(=O)[C@@H]2CCCN2C(=O)[C@@H]2CCCN2C1=O) [DOTA-Met-[Cys(3MeBn)-Pro-Pro-Thr-Glu-Phe-Cys]-Asp-His-Phe-Arg-Asp-NH2] |
| 6.1 pIC50 and 7 pIC50 | 6.1 pIC50 and 7 pIC50 | – | Hexanoyl-CPPTE[Phe(4-Cl)]C-NH2 (linker 1-7 via mXylylene; SMILES CCCCCC(=O)N[C@H]1CSCc2cccc(c2)CSC[C@@H](C(N)=O)NC(=O)[C@H](Cc2ccc(Cl)cc2)NC(=O)[C@H](CCC(=O)O)NC(=O)[C@H]([C@@H](C)O)NC(=O)[C@@H]2CCCN2C(=O)[C@@H]2CCCN2C1=O, also called 3BP-3369) [Hex-[Cys(3MeBn)-Pro-Pro-Thr-Glu-Pcf-Cys]-NH2] |
| 6.1 pIC50 and 7 pIC50 | 6.1 pIC50 and 7 pIC50 | – | {DOTA}-[Nle]CPPTEFCDHFRD-NH2 (linker 2-8 via mXylylene; SMILES CCCC[C@H](NC(=O)CN1CCN(CC(=O)O)CCN(CC(=O)O)CCN(CC(=O)O)CC1)C(=O)N[C@H]1CSCc2cccc(c2)CSC[C@@H](C(=O)N[C@@H](CC(=O)O)C(=O)N[C@@H](Cc2c[nH]cn2)C(=O)N[C@@H](Cc2ccccc2)C(=O)N[C@@H](CCCNC(=N)N)C(=O)N[C@@H](CC(=O)O)C(N)=O)NC(=O)[C@H](Cc2ccccc2)NC(=O)[C@H](CCC(=O)O)NC(=O)[C@H]([C@@H](C)O)NC(=O)[C@@H]2CCCN2C(=O)[C@@H]2CCCN2C1=O, also called 3BP-3088) [DOTA-Nle-[Cys(3MeBn)-Pro-Pro-Thr-Glu-Phe-Cys]-Asp-His-Phe-Arg-Asp-NH2] |
| 6.1 pIC50 and 7 pIC50 | 7.1 pIC50 and 8 pIC50 | – | Hexanoyl-CP[Pro(trans-4-F)]TEFC-NH2 (linker 1-7 via mXylylene; SMILES CCCCCC(=O)N[C@H]1CSCc2cccc(c2)CSC[C@@H](C(N)=O)NC(=O)[C@H](Cc2ccccc2)NC(=O)[C@H](CCC(=O)O)NC(=O)[C@H]([C@@H](C)O)NC(=O)[C@@H]2C[C@@H](F)CN2C(=O)[C@@H]2CCCN2C1=O, also called 3BP-3352) [Hex-[Cys(3MeBn)-Pro-4Tfp-Thr-Glu-Phe-Cys]-NH2] |
